Experimental data from PMC3792966.

Target: SspA of F. tularensis SCHU S4 fused to the Zif protein (F. tularensis SCHU S4)
Test: two-hybrid

Q: What does the source list for “MglA of F. tularensis SCHU S4 fused to the ω subunit of E. coli RNA polymerase (natural protein)”?
A: β-galactosidase activity in strain AW23: 2400 AU; β-galactosidase activity in strain AW24: 26000 AU
